Experimental findings from paper PMC7027807 are described below.

The target in the assay is CP-His-CP MS2 dimer (bacteriophage MS2). Briefly: cryo-EM structure; large particles (~330 Å) of the same CP-His-CP sample; icosahedral T = 4 reconstruction at 6 Å, x100k and x150k datasets together; coat protein dimers of PDB 5TC1 fitted as rigid bodies.

CP-His-CP MS2 dimer had a stoichiometry N (coat proteins) of 240.
